The record followed here is patent publication US20110293610A1 (published 2011).

For test [1], the target named is T1, B Lymphocyte Stimulator, soluble form (human) (human, UniProt Q9Y275 134-285, biotinylated with NHS-biotin where used as biotinylated B Lymphocyte Stimulator).
T1 construct: Coated on plastic, captured on streptavidin plates, amine-coupled to a CM5 chip or free in solution, depending on the assay; also called BLyS; immobilized B Lymphocyte Stimulator
The test can be described thus: phage competition ELISA. Background: An ELISA detects its analyte on a solid surface through an enzyme-linked reagent.

The target in another test is T2, TNF-alpha (human, UniProt P01375 77-233).
T2 construct: also called TNFα; TNF-α
The test can be described thus: phage ELISA.

The target of the next test is T3, TRAIL (human, UniProt P50591 114-281).
T3 construct: also called TNF-related apoptosis inducing ligand
In words: phage ELISA.

For the next test, the target named is T4, Fas ligand (human, UniProt P48023 134-281, limits assumed).
T4 sequence (looked up): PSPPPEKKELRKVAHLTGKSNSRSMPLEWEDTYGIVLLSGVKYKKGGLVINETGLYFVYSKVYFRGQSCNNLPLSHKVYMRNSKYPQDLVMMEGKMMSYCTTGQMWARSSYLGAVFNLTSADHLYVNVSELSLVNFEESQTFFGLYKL
The test can be described thus: phage ELISA.

For a further test, the target named is T5, TNF-beta (human, UniProt P01374 35-205).
T5 construct: also called TNFβ; Tumour Necrosis Factor-beta
T5 sequence (looked up): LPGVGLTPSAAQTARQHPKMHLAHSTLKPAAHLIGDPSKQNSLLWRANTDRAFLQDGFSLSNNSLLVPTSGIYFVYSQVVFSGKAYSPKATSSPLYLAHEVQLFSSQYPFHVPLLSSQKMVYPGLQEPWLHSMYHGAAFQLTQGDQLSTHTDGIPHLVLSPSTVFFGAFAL
In words: phage ELISA.

Test [2] concerns the target T6, membrane-bound B Lymphocyte Stimulator on U937 plasma membrane preparations (human, UniProt Q9Y275 1-285).
T6 construct: Natural protein in plasma membrane fractions of the human cell line U937 coated on ELISA plates; also called U937 plasma membranes; U937 membranes
In words: phage ELISA.

Residue numbers refer to the chain shown, from its start.

B1: I029F11 (scFv)
scFv: QVQLVQSRAEVKRPGASVKVSCKASGYRFGSYGITWVRQAPGQGLEWMGWISTRYGDTKSAQKVEGRVTLTTDTSTSTAYMELRSLRSDDTAVYYCARDGSYDILTGYYIDNYMDVWGRGTLVTVSSGGGGSGGGGSGGGGSQSVLTQPPSASGTPGQRVTISCSGSSSNIGSNTVNWYQRLPGAAPQLLIYNNDQRPSGIPDRFSGSKSGTSGSLVISGLQSEDEADYYCASWDDSLNGRVFGGGTKLTVLG
Take B1: the binding result in test [1] is given as “binds”; in the test with TNF-alpha it was “no binding”; with TRAIL it was “no binding”; in the test with Fas ligand, “no binding”; with TNF-beta, “no binding”; in test [2] it was “binds”.

B2: I022D01 (scFv)
scFv: EVNLRESGGGVDQPGRSLRLSCAASGFTFSSYGMHWVRQAPGKGLEWVAVISYDGSNKYYADSVKGRFTISRDNSKNTLYLQMNSLRAEDTAVYYCAKDGYYDILTGYSYYGMDVWGQGPMVAVSSGGGGSGGGGSGGGGSSELTQDPAVSVALGQTVRITCQGDSLRSYYTNWFQQKPGQAPLLVVYAKNKRPSGIPDRFSGSSSGNTASLTITGAQAEDEADYYCNSRDSSGNHVVFGGGTKLTVLG
Take B2: the binding result is reported as “binds” in test [1]; “no binding” with TNF-alpha; “no binding” with TRAIL; “no binding” with Fas ligand; “no binding” with TNF-beta; “binds” in test [2].

B3: I007B03 (scFv)
scFv: GVQLQQSGAEVKKPGSSVKVSCKASGGTFNTSGITWVRQAPGQGLEWMGWMNPNTGDTAYAQEFQGRVIMTRDTSISTAYMELSSLRSEDTAVYYCARDGSYDILTGYYIDNYMDVWGQGTMVTVSSGGGGSGGGGSGGGGSQSVLTQPASVSGSPGQSITISCTGTSSDVGGYNYVSWYQQHPGKAPKLMIYEGSKRPSGVSNRFSGSKSGNTASLTISGLQAEDEADYYCSSYTTRSTRVFGGGTKLTVLG
In the case of B3, the binding result is listed as “binds” in test [1]; “no binding” in the test with TNF-alpha; “no binding” with TRAIL; “no binding” in the test with Fas ligand; “no binding” in the test with TNF-beta; “binds” in test [2].

B4: I026E03 (scFv)
scFv: EVQLVQSGGEVKRPGASVKVSCKASGYTFSRYGISWVRQAPGQGLEWMGWISAYNGKTSFAEKFQGRVTLTTDTSTTTVDMELRNLRSDDTAVYYCARTDYDILTGYPMGYFDPWGKGTLVTVSSGGGGSGGGGSGGGGSALSSELTQDPAVSVALGQTVKITCQGDSLRSFYAAWYQQKPGQAPILVISGKNNRPSGIPDRFSGSSSGNTASLTITGAQAEDEADYYCNSRDTSGNHYVFGAGTKLTVLG
On to B4, for which the binding result is recorded as “binds” in test [1]; “no binding” in the test with TNF-alpha; “no binding” with TRAIL; “no binding” with Fas ligand; “no binding” in the test with TNF-beta; “binds” in test [2].

B5: I007H08 (scFv)
scFv: QVQLQQSGPGLVKPSQILSLTCAISGDSVASNGAAWNWIRQSPSRGLEWLGRTYYRSKWYVDYAVSVKSRITINPDTSKNQFSLQLNSVTPEDTAVYYCARDRYDILTGYYYYGMDVWGQGTMVTVSSGGGGSGGGGSGGGGSQSALTQPASVSGSRGQSITISCTGTTGDVGGYDYVSWYQQHPGKAPKLLIYGNSNRPSGVPDRFSASKSGNTASLTISGLQAEDEADYFCNTYAPPGIIMFGGGTKLTVLG
As for B5, the binding result in test [1] is “binds”; in the test with TNF-alpha, “no binding”; with TRAIL it was “no binding”; in the test with Fas ligand it was “no binding”; with TNF-beta, “no binding”; in test [2] it was “binds”.

B6: I008A11 (scFv)
scFv: B5 scFv with N234S
Take B6: the binding result in test [1] was “binds”; with TNF-alpha, “no binding”; with TRAIL, “no binding”; in the test with Fas ligand, “no binding”; in the test with TNF-beta, “no binding”; in test [2], “binds”.

B7: I061H01 (scFv)
scFv: QVQLVQSGGGLVKPGGSLRLSCAASGFTFSNAWMSWVRQAPGKGLQWVGRIKSKTDGGTTDYAAPVKGRFTISRDDSKNTLYLQMNSLKTEDTAVYYCTTFNPTYDILTGYYIGGYFQHWGQGTMVTVSSGGGGSGGGGSGGGGSQSVLTQPASVSGSPGQSITISCTGTSSDVGGYNYVSWYQQHPGKAPKLMIYEGSKRPSGVSNRFSGSKSGNTASLTISGLQAEDEADYYCSSYTTRSTRVFGGGTQLTVLG
notes: also called 1061H01
Consider B7, for which the binding result in test [1] is reported as “binds”; in the test with TNF-alpha, “no binding”; in the test with TRAIL, “no binding”; in the test with Fas ligand it was “no binding”; in the test with TNF-beta it was “no binding”; in test [2] it was “binds”.

B8: I008A09 (scFv)
scFv: GVQLVQSGGGVVQPGGSLRLSCAASGFTFSSYGMHWVRQAPGKGLEWVAVISYDGSNKYYADSVKGRFTISRDNSKNTLYLQMNSLRAEDTAVYYCARDREAYYDILTGYYLYYYYMDVWGRGTTVTVSSGGGGSGGGGSGGGGSQSVLTQPASVSGSPGQSITISCTGTSSDVGGYNYVSWYQQHPGKAPKLMIYEGSKRPSGVSNRFSGSKSGNTASLTISGLQAEDEADYYCSSYTTGSTRVFGGGTKLTVLG
As to B8, the binding result in test [1] was “binds”; with TNF-alpha, “no binding”; with TRAIL, “no binding”; with Fas ligand, “no binding”; with TNF-beta it was “no binding”; in test [2], “binds”.

B9: I006D08 (scFv)
scFv: QVQLQQSGAEVKKPGSSVRVSCKASGGTFNNNAINWVRQAPGQGLEWMGGIIPMFGTAKYSQNFQGRVAITADESTSTASMELSSLRSEDTAVYYCARSRDLLLFPHYGMDVWGRGTMVTVSSGGGGSGGGGSGGGGSAFSSELTQDPAVSVALGQTVRVTCQGDSLRSYYASWYQQKPGQAPVLVIYGKNNRPSGIPDRFSGSSSGNTASLTITGAQAEDEADYYCNSRDSSGNHWVFGGGTELTVLG
On to B9, for which the binding result in test [1] is on record as “binds”; with TNF-alpha it was “no binding”; in the test with TRAIL it was “no binding”; with Fas ligand, “no binding”; with TNF-beta, “no binding”; in test [2] it was “binds”.

B10: I018C10 (scFv)
scFv: GVQLVQSGPEVKKPGASVKVSCTASGYTFTSYGVSWVRQAPGQGLEWIGWISAHNGQTKYAEKFQGRVTMTRNTSISTAYMELSSLRSEDTVVYYCARDGSYDILTGYYIDNYMDVWGKGTMVTVSSGGGGSGGGGSGGGGSSELTQDPAVSVALGQTVRITCQGDSLRSYYTNWFQQKPGQAPLLVVYAKNKRPSGIPDRFSGSSSGNTASLTITGAQAEDEADYYCHSRDSSGNHVLFGGGTKLTVLG
As for B10, the binding result in test [1] is recorded as “binds”; with TNF-alpha, “no binding”; with TRAIL, “no binding”; in the test with Fas ligand it was “no binding”; with TNF-beta it was “no binding”; in test [2] it was “binds”.

B11: I016F02 (scFv)
scFv: GVQLVESGAEVKKPGASVKVSCRTSGYTFTSNSFSWVRQAPGQGLEWMGGIIPIFGTANYAQKLQGRVTITADELTRTVYMDLSSLRSEDTAVYYCATGMGDHYGMDVWGRGTLVTVSSGGGGSGGGGSGGGGSQSVLTQPASVSGSPGQSITISCTGTSSDVGGYNYVSWYQQHPGKAPKLMIYEGSKRPSGVSNRFSGSKSGNTASLTISGLQAEDEADYYCSSYTTRSTRVFGGGTKLTVLG
In the case of B11, the binding result in test [1] is given as “binds”; with TNF-alpha it was “no binding”; with TRAIL, “no binding”; with Fas ligand, “no binding”; in the test with TNF-beta, “no binding”; in test [2] it was “binds”.

B12: I017D10 (scFv)
scFv: RVQLVQSGAEVKKPGASVKVSCKASGYTFTSDHISWVRQAPGQGLEWMGWISPHHGKTNYAQKLQGRVTMTTDTSTSTAYMELRSLRSDDTAVYYCARVQMDSEYYDLLTGINVGPYYFDYWGKGTLVTVSSGGGGSGGGGSGGGGSSELTQDPAVSVALGQTVRITCQGDSLRSYYASWYQQKPGQAPVLVIYGKNNRPSGIPDRFSGSSSGNTASLTITGAQAEDEADYYCNSRDSSGNHVVFGGGTKLTVLG
For B12, the binding result in test [1] is listed as “binds”; with TNF-alpha, “no binding”; with TRAIL it was “no binding”; with Fas ligand, “no binding”; in the test with TNF-beta it was “no binding”; in test [2], “binds”.
